In the data set the test system is Bacillus subtilis. In words: cleaved RNA product abundance (RNA/gDNA barcode ratio) relative to median wild-type variant (ratio to wild type); higher = more accumulation of the downstream cleavage product. Particulars: cleavage site: cggR-gapA (positions -7 to +36 mutated). Summed up:
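Truncated aprE or tetM reporter mRNAs with barcoded RNase Y cleavage-site windows, mutagenized from oligos at a 9% error rate, sat in the B. subtilis chromosome. Cells grew in LB at 37°C from OD600 0.0003 to 0.3. Gel-selected cleaved RNA was reverse transcribed and its barcodes sequenced with those from genomic DNA, collapsing by UMI. Cleaved product abundance equals the RNA:gDNA barcode ratio per construct over the median construct with the unmutated site.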

[1] abbreviates: experiment (reporter, strain, medium): exp 2b: truncated aprE reporter, strain BJT200.
The mark [2] stands for this setting: experiment (reporter, strain, medium): exp 4a: truncated aprE reporter, strain BJT201 with 2% xylose (RNase J1 expressed).

Consider “ACAGACGAAGGAGCCGCAAAGAAGTTATTAATGGATGAATAATCCCCCAATATAAATATCTCTCACTTATTTAAA”, for which the “cleaved RNA product abundance” value is, setting by setting: under setting [1], 0.0983; under setting [2], 0.122.

In the case of “ACAGACGAAGGAGCCGCAAAGAAGTTATTAATGGATGAATAATCCCGCAATATAAATATCTCTCACTTATTTAAA”, under setting [2], the “cleaved RNA product abundance” value was 0.144.

As for “ACAGACGAAGGAGCCGCAAAGAAGTTATTAATGGATGAATAATCCCTAAATATAAATATCTCTCACTTATTTAAA”, the “cleaved RNA product abundance” value is, setting by setting: under setting [1], 0.163; under setting [2], 0.196.

“ACAGACGAAGGAGCCGCAAAGAAGTTATTAATGGATGAATAATCCCTCAAAATAAATATCTCTCACTTATTTAAA”: the “cleaved RNA product abundance” value under setting [1] came to 0.11 and the “cleaved RNA product abundance” value under setting [2] worked out at 0.151.

On to “ACAGACGAAGGAGCCGCAAAGAAGTTATTAATGGATGAATAATCCCTCAACATAAATATCTCTCACTTATTTAAA”, for which the “cleaved RNA product abundance” value under setting [2] turned out to be 0.101.

As to “ACAGACGAAGGAGCCGCAAAGAAGTTATTAATGGATGAATAATCCCTCAAGATAAATATCTCTCACTTATTTAAA”, the “cleaved RNA product abundance” value stood at 0.0884 under setting [1] and 0.0994 under setting [2].

For “ACAGACGAAGGAGCCGCAAAGAAGTTATTAATGGATGAATAATCCCTCAATAAAAATATCTCTCACTTATTTAAA”, the “cleaved RNA product abundance” value under setting [1] came out at 0.136 and the “cleaved RNA product abundance” value under setting [2] is 0.108.

With “ACAGACGAAGGAGCCGCAAAGAAGTTATTAATGGATGAATAATCCCTCAATAGAAATATCTCTCACTTATTTAAA”, the “cleaved RNA product abundance” value under setting [2] is 0.0769.

On to “ACAGACGAAGGAGCCGCAAAGAAGTTATTAATGGATGAATAATCCCTCAATATAAAAATCTCTCACTTATTTAAA”, for which the “cleaved RNA product abundance” value reads like this: under setting [1], 0.133; under setting [2], 0.156.

In the case of “ACAGACGAAGGAGCCGCAAAGAAGTTATTAATGGATGAATAATCCCTCAATATAAACATCTCTCACTTATTTAAA”, under setting [2], the “cleaved RNA product abundance” value was 0.116.

For “ACAGACGAAGGAGCCGCAAAGAAGTTATTAATGGATGAATAATCCCTCAATATAAAGATCTCTCACTTATTTAAA”, the “cleaved RNA product abundance” value under setting [2] was 0.0975.

“ACAGACGAAGGAGCCGCAAAGAAGTTATTAATGGATGAATAATCCCTCAATATAAATAACTCTCACTTATTTAAA”: the “cleaved RNA product abundance” value under setting [1] came out at 0.115 and the “cleaved RNA product abundance” value under setting [2] worked out at 0.23.

On to “ACAGACGAAGGAGCCGCAAAGAAGTTATTAATGGATGAATAATCCCTCAATATAAATATCTCTCACTTATTTAAA”, for which the “cleaved RNA product abundance” value reads like this: under setting [1], 0.122; under setting [2], 0.155; (experiment (reporter, strain, medium): exp 6: tetM reporter, strain 168) 0.174.

On to “ACAGACGAAGGAGCCGCAAAGAAGTTATTAATGGATGAATAATCCCTCAATATAAATGTCTCTCACTTATTTAAA”, for which the “cleaved RNA product abundance” value runs as follows: under setting [1], 0.107; under setting [2], 0.194.

For “ACAGACGAAGGAGCCGCAAAGAAGTTATTAATGGATGAATAATCCCTCAATATAAATTTCTCTCACTTATTTAAA”, the “cleaved RNA product abundance” value by setting is: under setting [1], 0.112; under setting [2], 0.138.

Take “ACAGACGAAGGAGCCGCAAAGAAGTTATTAATGGATGAATAATCCCTCAATATAACTATCTCTCACTTATTTAAA”: the “cleaved RNA product abundance” value under setting [2] is 0.072.

On to “ACAGACGAAGGAGCCGCAAAGAAGTTATTAATGGATGAATAATCCCTCAATATAATTATCTCTCACTTATTTAAA”, for which the “cleaved RNA product abundance” value was found to be 0.13 under setting [1] and 0.108 under setting [2].

In the case of “ACAGACGAAGGAGCCGCAAAGAAGTTATTAATGGATGAATAATCCCTCAATATACATATCTCTCACTTATTTAAA”, the “cleaved RNA product abundance” value is, setting by setting: under setting [1], 0.157; under setting [2], 0.165.

On to “ACAGACGAAGGAGCCGCAAAGAAGTTATTAATGGATGAATAATCCCTCAATATAGATATCTCTCACTTATTTAAA”, for which the “cleaved RNA product abundance” value under setting [2] is 0.215.

With “ACAGACGAAGGAGCCGCAAAGAAGTTATTAATGGATGAATAATCCCTCAATATATATATCTCTCACTTATTTAAA”, the “cleaved RNA product abundance” value came to 0.0976 under setting [1] and 0.15 under setting [2].

“ACAGACGAAGGAGCCGCAAAGAAGTTATTAATGGATGAATAATCCCTCAATATCAATATCTCTCACTTATTTAAA”: under setting [2], the “cleaved RNA product abundance” value was 0.0753.

Regarding “ACAGACGAAGGAGCCGCAAAGAAGTTATTAATGGATGAATAATCCCTCAATATTAATATCTCTCACTTATTTAAA”, the “cleaved RNA product abundance” value under setting [2] stood at 0.0604.

As to “ACAGACGAAGGAGCCGCAAAGAAGTTATTAATGGATGAATAATCCCTCAATTTAAATATCTCTCACTTATTTAAA”, the “cleaved RNA product abundance” value under setting [1] was determined as 0.0807.

In the case of “ACAGACGAAGGAGCCGCAAAGAAGTTATTAATGGATGAATAATCCCTCACTATAAATATCTCTCACTTATTTAAA”, under setting [1], the “cleaved RNA product abundance” value was 0.0821.

With “ACAGACGAAGGAGCCGCAAAGAAGTTATTAATGGATGAATAATCCCTCAGTATAAATATCTCTCACTTATTTAAA”, the “cleaved RNA product abundance” value is, setting by setting: under setting [1], 0.0853; under setting [2], 0.0629.

Regarding “ACAGACGAAGGAGCCGCAAAGAAGTTATTAATGGATGAATAATCCCTCATTATAAATATCTCTCACTTATTTAAA”, the “cleaved RNA product abundance” value under setting [2] was 0.201.

Turning to “ACAGACGAAGGAGCCGCAAAGAAGTTATTAATGGATGAATAATCCCTCCATATAAATATCTCTCACTTATTTAAA”, the “cleaved RNA product abundance” value under setting [2] is 0.12.

In the case of “ACAGACGAAGGAGCCGCAAAGAAGTTATTAATGGATGAATAATCCCTCGATATAAATATCTCTCACTTATTTAAA”, the “cleaved RNA product abundance” value was 0.0785 under setting [1] and 0.116 under setting [2].

Turning to “ACAGACGAAGGAGCCGCAAAGAAGTTATTAATGGATGAATAATCCCTCTATATAAATATCTCTCACTTATTTAAA”, the “cleaved RNA product abundance” value under setting [2] amounted to 0.143.

Turning to “ACAGACGAAGGAGCCGCAAAGAAGTTATTAATGGATGAATAATCCCTGAATATAAATATCTCTCACTTATTTAAA”, the “cleaved RNA product abundance” value worked out at 0.0961 under setting [1] and 0.133 under setting [2].

“ACAGACGAAGGAGCCGCAAAGAAGTTATTAATGGATGAATAATCCCTTAATATAAATATCTCTCACTTATTTAAA”: the “cleaved RNA product abundance” value under setting [1] came to 0.806 and the “cleaved RNA product abundance” value under setting [2] is 0.625.

In the case of “ACAGACGAAGGAGCCGCAAAGAAGTTATTAATGGATGAATAATCCTTCAATATAAATATCTCTCACTTATTTAAA”, the “cleaved RNA product abundance” value runs as follows: under setting [1], 0.212; under setting [2], 0.191.

Take “ACAGACGAAGGAGCCGCAAAGAAGTTATTAATGGATGAATAATCGCTCAATATAAATATCTCTCACTTATTTAAA”: the “cleaved RNA product abundance” value under setting [1] was 0.077.

For “ACAGACGAAGGAGCCGCAAAGAAGTTATTAATGGATGAATAATCTCTCAATATAAATATCTCTCACTTATTTAAA”, the “cleaved RNA product abundance” value is, setting by setting: under setting [1], 0.108; under setting [2], 0.14.

Regarding “ACAGACGAAGGAGCCGCAAAGAAGTTATTAATGGATGAATAATGCCTCAATATAAATATCTCTCACTTATTTAAA”, the “cleaved RNA product abundance” value reads like this: under setting [1], 0.0612; under setting [2], 0.105.

As for “ACAGACGAAGGAGCCGCAAAGAAGTTATTAATGGATGAATAATTCATCAATATAAATATCTCTCACTTATTTAAA”, the “cleaved RNA product abundance” value under setting [2] was 0.316.

Consider “ACAGACGAAGGAGCCGCAAAGAAGTTATTAATGGATGAATAATTCCTCAATATAAATATCTCTCACTTATTTAAA”, for which the “cleaved RNA product abundance” value under setting [1] came out at 0.0864 and the “cleaved RNA product abundance” value under setting [2] was 0.12.

As to “ACAGACGAAGGAGCCGCAAAGAAGTTATTAATGGATGAATACTCCCTCAATATAAATATCTCTCACTTATTTAAA”, the “cleaved RNA product abundance” value under setting [2] was determined as 0.0655.

With “ACAGACGAAGGAGCCGCAAAGAAGTTATTAATGGATGAATAGTCCCTCAATATAAATATCTCTCACTTATTTAAA”, under setting [1], the “cleaved RNA product abundance” value was determined as 0.0972.

(Values after the supplement of paper PMC11780869.)
